Earlier results, collected in article PMC3166722.
Where two headings read alike, the source gives them in different places.

How the values were obtained:
[1] = biological target: CaM (Homo sapiens) (UniProt P0DP23)
[2] = biological target: CaM (Homo sapiens) (UniProt P0DP23); experiment: resonant mirror detection (IAsys)
[3] = biological target: GPC (trypsinized IOVs) (Homo sapiens) (UniProt P04921); experiment: IOV binding, Scatchard analysis
Sequence of GPC (trypsinized IOVs) (Homo sapiens) (P04921 whole entry): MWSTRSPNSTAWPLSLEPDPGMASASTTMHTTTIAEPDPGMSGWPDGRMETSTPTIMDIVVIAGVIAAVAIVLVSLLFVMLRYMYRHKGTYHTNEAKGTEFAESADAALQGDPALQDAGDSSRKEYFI

Sequence of 4.1R135 (P11171 whole entry): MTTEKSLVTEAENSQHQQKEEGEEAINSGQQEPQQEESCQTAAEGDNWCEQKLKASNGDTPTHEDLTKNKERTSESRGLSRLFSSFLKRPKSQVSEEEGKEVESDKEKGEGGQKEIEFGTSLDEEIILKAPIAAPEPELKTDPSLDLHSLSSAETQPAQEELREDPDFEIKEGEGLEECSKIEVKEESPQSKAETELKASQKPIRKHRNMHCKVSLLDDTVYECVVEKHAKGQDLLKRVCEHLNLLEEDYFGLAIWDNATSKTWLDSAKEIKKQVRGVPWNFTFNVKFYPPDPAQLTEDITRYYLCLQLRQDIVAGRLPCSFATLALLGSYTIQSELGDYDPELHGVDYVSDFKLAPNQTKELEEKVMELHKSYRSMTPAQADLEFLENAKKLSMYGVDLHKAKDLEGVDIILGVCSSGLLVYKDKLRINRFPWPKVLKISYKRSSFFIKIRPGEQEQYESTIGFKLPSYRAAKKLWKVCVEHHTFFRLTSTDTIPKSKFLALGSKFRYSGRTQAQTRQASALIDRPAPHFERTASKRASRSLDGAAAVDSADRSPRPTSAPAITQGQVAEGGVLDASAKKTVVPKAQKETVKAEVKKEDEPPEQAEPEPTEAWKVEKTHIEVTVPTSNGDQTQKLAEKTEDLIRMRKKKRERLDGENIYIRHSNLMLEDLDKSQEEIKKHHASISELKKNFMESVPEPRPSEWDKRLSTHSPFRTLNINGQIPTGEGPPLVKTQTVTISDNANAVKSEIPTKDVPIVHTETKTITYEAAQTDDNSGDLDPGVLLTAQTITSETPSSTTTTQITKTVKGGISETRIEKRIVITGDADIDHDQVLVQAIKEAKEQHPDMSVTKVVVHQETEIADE
Sequence of 4.1R80 (P11171 whole entry): as above

Substance | Kd [1] [nM] | Kd [2] [nM] | Kd [3] [nM]
4.1G (from UniProt O43491) | 10 | – | –
4.1R135 (from UniProt P11171) | – | 51 | 2000
4.1R80 (from UniProt P11171) | – | – | 76
